# Assay results from publication PMC314469, “Protein Interaction Networks by Proteome Peptide Scanning” (PLoS Biology, 2004).
# T1: amphyphisin SH3 (AMPH_HUMAN), P49418
# T1 chain: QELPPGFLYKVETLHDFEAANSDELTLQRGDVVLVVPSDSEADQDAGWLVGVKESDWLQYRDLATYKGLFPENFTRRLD
# B1: Q9NZM4 744-758 (peptide)
# chain: PTRPPSRPPSRPQS
# B2: Q99700 579-593 (peptide)
# chain: PTRPPSRPPSRPSR
# B3: P48023 33-46 (peptide)
# chain: PTSVPRRPGQRRPP
# B4: O75376 1024-1038 (peptide)
# chain: PTTRPTRPPPPLIP
# B5: Q12947 91-104 (peptide)
# chain: ASSGLRRPEKPPYS
# B6: P51511 317-330 (peptide)
# chain: PTVTPRRPGRPDHR
# B7: Q9BQI8 153-166 (peptide)
# chain: PVAVLKRPSQLSRK
# B8: Q9H3D6 83-96 (peptide)
# chain: PVEAIKRPSPDEPM
# B9: Q9NUD3 48-61 (peptide)
# chain: PVLSPRRPWPSLSW
# B10: P47985 41-54 (peptide)
# chain: PVLDLKRPFLSRES
# B11: Q9Y618 2172-2185 (peptide)
# chain: PVLDLRRPPSDLYL
# B12: Q9Y2H3 1375-1388 (peptide)
# chain: PVVLPWRPARAHSS
# B13: Q9P2Q1 393-407 (peptide)
# chain: PVVPPRRPPPPKKT
# B14: Q03252 424-437 (peptide)
# chain: PWQRPKRPGHGHGW
# B15: Q14968 167-180 (peptide)
# chain: PWRGFSRPSRFFSS
# B16: BAC03761 161-175 (peptide)
# chain: ASSRPGRPPKRSLG
# B17: P47712 557-570 (peptide)
# chain: PYPLILRPQRGVDL
# B18: Q9Y5N2 203-217 (peptide)
# chain: QAAFPRRPPPRGTR
# B19: Q96E55 116-129 (peptide)
# chain: QAATPRRPAAISRP
# B20: Q9UER3 87-101 (peptide)
# chain: QAGFPRRPPPRGTR
# B21: Q13671 45-58 (peptide)
# chain: QAGGPQRPGRVVSL
# B22: AAH32298 59-73 (peptide)
# chain: QAGPPSRPPRYSSS
# B23: O75317 40-53 (peptide)
# chain: QALYFSRPFREKVL
# B24: Q9H9T8 51-64 (peptide)
# chain: QALYFSRPFRENVL
# B25: P54098 158-172 (peptide)
# chain: QAQLPPKPPAWAWA
# B26: Q9BZ71 507-520 (peptide)
# chain: QASRFQRPGRRMSE
# B27: Q9UI36 281-295 (peptide)
# chain: ASSRPGRPPKRTQS
# B28: Q9Y6X3 59-73 (peptide)
# chain: QAVFPFKPPQRIEA
# B29: Q9H960 30-43 (peptide)
# chain: QAVHLPRPPRVLGL
# B30: Q9NWT4 356-370 (peptide)
# chain: QAVLPPRPPKVLEF
# B31: O75878 30-43 (peptide)
# chain: QSDSIRRPLRPGQY
# B32: Q9UIW2 291-304 (peptide)
# chain: QDAYLSRPGRALAH
# B33: O00456 524-538 (peptide)
# chain: QDLRPLRPPAQTPQ
# B34: Q05209 329-343 (peptide)
# chain: QDSPPPKPPRTRSS
# B35: Q9Y6J9 86-99 (peptide)
# chain: QEALPMRPAREGEL
# B36: Q8TEE1 827-841 (peptide)
# chain: QEDSPRKPPNFPVP
# B37: Q8TC00 766-780 (peptide)
# chain: QELLPGKPPKSRVL
# B38: O75764 109-122 (peptide)
# chain: ASSSPKRPSVERSN
# B39: P78524 721-734 (peptide)
# chain: QFPKLDRPTKQMRE
# B40: O95398 328-342 (peptide)
# chain: QGAGPSRPPTPGRN
# B41: Q13267 138-151 (peptide)
# chain: QGASIRRPSSGNAS
# B42: Q04118 294-308 (peptide)
# chain: QGGRPHRPPQGQPP
# Assays:
# [1] = target: T1, amphyphisin SH3 (AMPH_HUMAN), P49418; experiment: SPOT array
# [2] = target: endophilin SH3 (SH3G2_HUMAN), Q99962; experiment: SPOT array
Binder,"normalised SPOT signal, Boehringer light units (BLU); mean over the file's lines of this peptide [1]","normalised SPOT signal, Boehringer light units (BLU); mean over the file's lines of this peptide [2]"
B1,7120,5850
B2,23500,19900
B3,32.6,870
B4,1510,4420
B5,57.5,106
B6,5240,420
B7,46.3,72.6
B8,42.3,101
B9,101,109
B10,47,50.1
B11,35.4,63.7
B12,8510,2120
B13,7830,16000
B14,43,204
B15,3040,218
B16,6850,20200
B17,351,282
B18,6180,6430
B19,178,1370
B20,6450,7340
B21,4280,556

Binder,"normalised SPOT signal, Boehringer light units (BLU); mean over the file's lines of this peptide [1]","normalised SPOT signal, Boehringer light units (BLU); mean over the file's lines of this peptide [2]"
B22,13600,7540
B23,1060,226
B24,2250,224
B25,38.5,119
B26,4120,445
B27,950,5690
B28,80.1,62.6
B29,1920,178
B30,346,1570
B31,844,378
B32,165,219
B33,266,154
B34,20600,2900
B35,2910,70.9
B36,97.6,142
B37,49.9,156
B38,12.2,190
B39,116,133
B40,1010,2220
B41,33.6,124
B42,37.1,51.3
